Assay results from US20160331662A1 (UAB RESEARCH FOUNDATION, published 2016).

B1: FL^SspB (S. gordonii DL1 SspB, residues 39-1433) (other)
chain: DEVTETTSTSTVEVATTGNPATNLPEAQGEMSQVAKESQAKAGSKESALPVEVSSADLDKAVADAKSAGVKVVQDETKDKGTATTATDNAQKQDEIKSDYAKQAEEIKTTTEAYKKEVAAHQAETDKINAENKAADDKYQKDLKSHQEEVEKINTANATAKAEYEAKLAQYQKDLATVKKANEDSQQDYQNKLSAYQTELARVQKANAEAKEAYEKAVKENTAKNEALKVENEAIKQRNETAKATYEAAMKQYEADLAAIKKANEDNDADYQAKLAAYQTELARVQKANAEAKEAYDKAVKENTAKNTAIQAENEAIKQRNETAKATYDAAVKKYEADLAAVKQANATNEADYQAKLAAYQTELARVQKANADAKATYEKAVEDNKAKNAAIKAENEEIKQRNAVAKTDYEAKLAKYEADLAKYKKEFAAYTAALAEAESKKKQDGYLSEPRSQSLNFKSEPNAIRTIDSSVHQYGQQELDALVKSWGISPTNPDRKKSRAYSYFNAINSNNTYAKLVLEKDKPVDVTYTGLKNSSFNGKKISKVVYTYTLKETGFNDGTKMTMFASSDPTVTAWYNDYFTSTNINVKVKFYDEEGQLMNLTGGLVNFSSLNRGNGSGAIDKDAIESVRNFNGRYIPISGSSIKIHENNSAYADSSNAEKSLGARWNTSEWDTTSSPNNWYGAIVGEITQSEISFNMASSKSGNIWFAFNSNINAIGVPTKPVAPTAPTQPMYETEKPLEPAPVAPSYENEPTPPVKTPDQPEPSKPEEPTYETEKPLEPAPVAPSYENEPTPPVKTPDQPEPSKPEEPNYETEKPLEPAPVAPSYENEPTPPVKIPDQPEPSKPEEPTYDPLPTPPLAPTPKQLPTPPVVPTVHFHYSSLLAQPQINKEIKNEDGVDIDRTLVAKQSIVKFELKTEALTAGRPKTTSFVLVDPLPTGYKFDLDATKAASTGFDTTYDEASHTVTFKATDETLATYNADLTKPVETLHPTVVGRVLNDGATYTNNFTLTVNDAYGIKSNVVRVTTPGKPNDPDNPNNNYIKPTKVNKNKEGLNIDGKEVLAGSTNYYELTWDLDQYKGDKSSKEAIQNGFYYVDDYPEEALDVRPDLVKVADEKGNQVSGVSVQQYDSLEAAPKKVQDLLKKANITVKGAFQLFSADNPEEFYKQYVATGTSLVITDPMTVKSEFGKTGGKYENKAYQIDFGNGYATEVVVNNVPKITPKKDVTVSLDPTSENLDGQTVQLYQTFNYRLIGGLIPQNHSEELEDYSFVDDYDQAGDQYTGNYKTFSSLNLTMKDGSVIKAGTDLTSQTTAETDATNGIVTVRFKEDFLQKISLDSPFQAETYLQMRRIAIGTFENTYVNTVNKVAYASNTVRTTTPIPRTPDKPTPIPTPKPKDP
notes: range 39-1433

Columns and labels:
[1] = target: T1, FL^AgI/II (S. mutans UA159 Antigen I/II, full length recombinant construct) (Streptococcus mutans UA159, UniProt P23504 39-1562); test: SPR, analyte over ligand deglycosylated on the CM5 chip, 1:1 Langmuir model
T1 construct: also called CG14
T1 sequence (P23504 39-1562): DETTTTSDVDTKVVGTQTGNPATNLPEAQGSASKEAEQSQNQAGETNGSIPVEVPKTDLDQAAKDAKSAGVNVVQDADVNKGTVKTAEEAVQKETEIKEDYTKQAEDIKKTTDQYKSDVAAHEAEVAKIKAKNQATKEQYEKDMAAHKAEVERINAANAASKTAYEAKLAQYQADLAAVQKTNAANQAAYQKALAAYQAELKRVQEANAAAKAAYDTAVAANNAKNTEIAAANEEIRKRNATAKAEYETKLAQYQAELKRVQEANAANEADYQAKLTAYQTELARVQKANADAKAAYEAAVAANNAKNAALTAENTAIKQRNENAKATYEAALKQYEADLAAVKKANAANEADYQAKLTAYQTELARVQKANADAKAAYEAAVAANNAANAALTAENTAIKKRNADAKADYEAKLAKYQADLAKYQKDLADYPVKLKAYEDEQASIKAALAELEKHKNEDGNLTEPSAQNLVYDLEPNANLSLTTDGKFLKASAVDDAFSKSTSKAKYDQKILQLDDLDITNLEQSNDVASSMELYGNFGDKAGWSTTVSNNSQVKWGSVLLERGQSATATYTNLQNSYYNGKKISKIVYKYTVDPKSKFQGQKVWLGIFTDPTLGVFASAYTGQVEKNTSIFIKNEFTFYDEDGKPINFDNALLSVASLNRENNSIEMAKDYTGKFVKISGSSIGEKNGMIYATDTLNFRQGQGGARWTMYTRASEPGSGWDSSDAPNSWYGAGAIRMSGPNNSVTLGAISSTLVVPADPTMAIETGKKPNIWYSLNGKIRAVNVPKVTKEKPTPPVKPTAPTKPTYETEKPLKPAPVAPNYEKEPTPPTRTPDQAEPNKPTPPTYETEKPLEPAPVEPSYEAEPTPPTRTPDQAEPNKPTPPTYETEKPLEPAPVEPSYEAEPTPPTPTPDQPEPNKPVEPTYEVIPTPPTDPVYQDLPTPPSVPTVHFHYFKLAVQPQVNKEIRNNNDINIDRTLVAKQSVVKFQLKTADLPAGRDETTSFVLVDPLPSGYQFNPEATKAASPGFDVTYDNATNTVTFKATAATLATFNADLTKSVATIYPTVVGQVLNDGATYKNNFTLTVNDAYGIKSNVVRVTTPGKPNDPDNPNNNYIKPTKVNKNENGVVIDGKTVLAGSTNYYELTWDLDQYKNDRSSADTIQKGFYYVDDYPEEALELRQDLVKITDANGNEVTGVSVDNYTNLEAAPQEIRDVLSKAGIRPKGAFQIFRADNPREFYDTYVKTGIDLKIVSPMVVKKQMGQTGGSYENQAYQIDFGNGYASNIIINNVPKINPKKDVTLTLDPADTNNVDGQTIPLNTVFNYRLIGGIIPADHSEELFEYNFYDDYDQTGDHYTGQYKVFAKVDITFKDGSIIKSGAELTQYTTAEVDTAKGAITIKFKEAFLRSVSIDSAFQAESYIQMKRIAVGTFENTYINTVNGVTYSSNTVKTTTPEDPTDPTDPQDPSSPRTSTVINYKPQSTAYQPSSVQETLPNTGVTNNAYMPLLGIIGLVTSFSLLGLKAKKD

C123^AgI/II [2] = target: T2, C123^AgI/II (Streptococcus mutans UA159, UniProt P23504 1000-1486); test: as above
T2 construct: domain: C123
T2 sequence: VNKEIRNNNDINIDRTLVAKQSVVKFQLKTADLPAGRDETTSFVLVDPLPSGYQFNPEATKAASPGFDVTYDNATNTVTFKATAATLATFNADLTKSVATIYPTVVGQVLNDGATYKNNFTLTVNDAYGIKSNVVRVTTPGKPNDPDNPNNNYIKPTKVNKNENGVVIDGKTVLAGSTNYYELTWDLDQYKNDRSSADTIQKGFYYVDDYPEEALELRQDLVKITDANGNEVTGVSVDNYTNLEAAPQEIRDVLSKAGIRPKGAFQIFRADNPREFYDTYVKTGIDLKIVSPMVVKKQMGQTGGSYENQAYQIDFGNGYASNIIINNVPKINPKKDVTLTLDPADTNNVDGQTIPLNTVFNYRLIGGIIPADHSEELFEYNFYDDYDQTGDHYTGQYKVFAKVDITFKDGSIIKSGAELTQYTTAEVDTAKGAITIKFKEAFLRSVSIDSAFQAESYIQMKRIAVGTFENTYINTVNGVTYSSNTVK

[3] = target: B1; test: as above
A3VP1^AgI/II [4] = target: T3, A3VP1^AgI/II (Streptococcus mutans UA159, UniProt P23504 386-874); test: as above
T3 construct: domain: A3VP1; also called A3VP1 of AgI/II
T3 sequence: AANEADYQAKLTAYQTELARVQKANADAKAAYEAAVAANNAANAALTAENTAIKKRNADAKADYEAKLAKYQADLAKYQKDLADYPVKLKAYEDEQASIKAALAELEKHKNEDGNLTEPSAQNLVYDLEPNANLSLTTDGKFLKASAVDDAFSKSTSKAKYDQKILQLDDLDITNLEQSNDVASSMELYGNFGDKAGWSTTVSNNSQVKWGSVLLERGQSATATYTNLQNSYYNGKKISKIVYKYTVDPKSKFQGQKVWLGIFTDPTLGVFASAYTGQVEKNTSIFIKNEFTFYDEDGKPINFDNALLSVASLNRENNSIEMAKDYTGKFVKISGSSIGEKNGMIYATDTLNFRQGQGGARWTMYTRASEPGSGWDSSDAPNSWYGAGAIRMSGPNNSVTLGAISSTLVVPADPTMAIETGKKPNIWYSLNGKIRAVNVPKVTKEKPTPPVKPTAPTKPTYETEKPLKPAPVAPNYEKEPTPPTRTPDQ

[5] = target: salivary agglutinin (SAG) (human, UniProt Q9UGM3 20-2413); test: SPR, analyte over SAG immobilized on CM5 chip, 1:1 Langmuir model
salivary agglutinin (SAG), sequence (Q9UGM3 whole entry): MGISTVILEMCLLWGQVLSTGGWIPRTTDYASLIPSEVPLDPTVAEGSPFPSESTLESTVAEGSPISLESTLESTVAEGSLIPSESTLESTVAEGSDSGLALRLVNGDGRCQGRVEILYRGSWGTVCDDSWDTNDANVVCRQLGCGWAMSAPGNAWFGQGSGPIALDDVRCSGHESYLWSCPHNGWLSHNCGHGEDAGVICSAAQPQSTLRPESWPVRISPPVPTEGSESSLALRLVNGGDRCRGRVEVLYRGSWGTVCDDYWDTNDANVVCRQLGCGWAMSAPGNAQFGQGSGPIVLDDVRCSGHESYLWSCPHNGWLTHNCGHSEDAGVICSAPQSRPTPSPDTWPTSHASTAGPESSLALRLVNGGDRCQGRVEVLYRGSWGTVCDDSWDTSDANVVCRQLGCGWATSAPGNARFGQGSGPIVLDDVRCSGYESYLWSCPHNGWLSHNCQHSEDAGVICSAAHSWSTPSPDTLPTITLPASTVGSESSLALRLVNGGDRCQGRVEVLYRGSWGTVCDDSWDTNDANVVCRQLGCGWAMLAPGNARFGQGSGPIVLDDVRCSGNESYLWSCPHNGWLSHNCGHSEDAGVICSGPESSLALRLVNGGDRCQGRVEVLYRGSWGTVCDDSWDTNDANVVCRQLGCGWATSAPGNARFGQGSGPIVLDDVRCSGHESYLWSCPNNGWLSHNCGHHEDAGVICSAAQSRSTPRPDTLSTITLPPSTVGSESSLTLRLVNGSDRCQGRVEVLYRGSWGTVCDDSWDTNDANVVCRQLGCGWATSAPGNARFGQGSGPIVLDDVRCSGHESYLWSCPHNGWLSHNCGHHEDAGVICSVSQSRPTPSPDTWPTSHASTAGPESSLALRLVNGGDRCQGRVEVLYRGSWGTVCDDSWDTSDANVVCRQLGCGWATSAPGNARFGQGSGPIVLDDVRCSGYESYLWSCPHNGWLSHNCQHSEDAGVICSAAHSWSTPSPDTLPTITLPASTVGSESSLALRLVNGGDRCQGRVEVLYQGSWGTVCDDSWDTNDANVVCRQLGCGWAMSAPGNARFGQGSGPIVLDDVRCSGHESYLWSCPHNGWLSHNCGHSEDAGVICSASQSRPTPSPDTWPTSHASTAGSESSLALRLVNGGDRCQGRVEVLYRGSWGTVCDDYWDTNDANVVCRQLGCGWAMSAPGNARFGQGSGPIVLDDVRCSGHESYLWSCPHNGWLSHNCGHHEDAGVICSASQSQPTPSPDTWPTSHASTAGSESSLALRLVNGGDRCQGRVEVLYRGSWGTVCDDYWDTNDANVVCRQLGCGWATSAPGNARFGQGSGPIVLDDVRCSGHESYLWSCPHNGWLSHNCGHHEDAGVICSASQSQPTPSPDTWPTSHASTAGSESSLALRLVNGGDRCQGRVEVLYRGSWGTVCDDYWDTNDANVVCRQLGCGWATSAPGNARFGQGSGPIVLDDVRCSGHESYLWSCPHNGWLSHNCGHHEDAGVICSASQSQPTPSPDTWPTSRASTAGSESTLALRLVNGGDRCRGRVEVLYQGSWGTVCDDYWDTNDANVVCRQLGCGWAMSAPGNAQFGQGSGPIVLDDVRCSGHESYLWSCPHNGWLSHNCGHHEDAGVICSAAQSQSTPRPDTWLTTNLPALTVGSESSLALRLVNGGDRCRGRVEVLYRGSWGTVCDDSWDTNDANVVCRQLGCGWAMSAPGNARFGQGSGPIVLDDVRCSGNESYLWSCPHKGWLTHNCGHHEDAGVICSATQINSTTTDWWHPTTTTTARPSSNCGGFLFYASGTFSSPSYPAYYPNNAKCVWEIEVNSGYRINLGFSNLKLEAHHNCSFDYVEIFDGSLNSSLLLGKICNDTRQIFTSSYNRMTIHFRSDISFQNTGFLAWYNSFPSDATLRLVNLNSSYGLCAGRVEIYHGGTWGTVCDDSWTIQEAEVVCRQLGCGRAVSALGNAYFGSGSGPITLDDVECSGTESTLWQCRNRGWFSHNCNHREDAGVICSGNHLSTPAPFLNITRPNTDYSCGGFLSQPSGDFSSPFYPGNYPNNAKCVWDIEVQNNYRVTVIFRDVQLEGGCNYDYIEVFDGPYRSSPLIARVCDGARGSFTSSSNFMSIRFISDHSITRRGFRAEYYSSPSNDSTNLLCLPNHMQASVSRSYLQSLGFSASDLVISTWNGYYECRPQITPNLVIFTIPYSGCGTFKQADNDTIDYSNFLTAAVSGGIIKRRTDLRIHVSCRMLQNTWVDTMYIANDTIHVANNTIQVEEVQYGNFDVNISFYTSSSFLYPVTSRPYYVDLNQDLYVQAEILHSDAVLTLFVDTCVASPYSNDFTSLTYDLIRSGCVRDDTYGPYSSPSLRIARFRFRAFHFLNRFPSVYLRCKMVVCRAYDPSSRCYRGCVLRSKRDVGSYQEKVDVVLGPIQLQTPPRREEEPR

iSRCR123 [6] = target: T4, iSRCR123 (human, UniProt Q9UGM3 102-463); test: SPR, analyte over immobilized iSRCR123; quantity and unit not printed beside the number, told as 'nanomolar affinities'
T4 construct: domain: SRCR123; also called SRCRs; iSRCRs
T4 sequence (Q9UGM3 102-463 limits assumed): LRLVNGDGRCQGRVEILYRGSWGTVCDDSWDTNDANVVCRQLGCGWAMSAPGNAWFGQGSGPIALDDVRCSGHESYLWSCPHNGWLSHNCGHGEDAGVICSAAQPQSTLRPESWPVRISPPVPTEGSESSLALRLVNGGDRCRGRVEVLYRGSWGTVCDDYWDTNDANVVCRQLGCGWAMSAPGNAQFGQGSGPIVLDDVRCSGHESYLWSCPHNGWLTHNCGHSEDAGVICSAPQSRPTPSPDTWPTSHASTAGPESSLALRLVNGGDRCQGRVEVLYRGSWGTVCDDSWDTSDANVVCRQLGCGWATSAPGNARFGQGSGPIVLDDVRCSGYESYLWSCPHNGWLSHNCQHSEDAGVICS

[7] = target: T1, FL^AgI/II (S. mutans UA159 Antigen …); test: SPR, analyte over ligand immobilized on CM5 chip, 1:1 Langmuir model; SPR with calcium; immobilized iSRCR1, not deglycosylated
C123^AgI/II [8] = target: T2, C123^AgI/II; test: as above
[9] = target: B1; test: as above
A3VP1^AgI/II [10] = target: T3, A3VP1^AgI/II; test: as above
iSRCR123 [11] = target: T4, iSRCR123; test: SPR, analyte over immobilized iSRCR1; quantity and unit not printed beside the number, unit taken from the paragraph's 'nanomolar affinities'

Row | Binder | Ka [1] [M⁻¹] | Kd [1] [nM] | koff [1] [s⁻¹] | kon [1] [M⁻¹ s⁻¹] | Ka (C123^AgI/II [2]) [M⁻¹] | Kd (C123^AgI/II [2]) [nM] | koff (C123^AgI/II [2]) [s⁻¹] | kon (C123^AgI/II [2]) [M⁻¹ s⁻¹] | Ka [3] [M⁻¹] | Kd [3] [nM] | koff [3] [s⁻¹] | kon [3] [M⁻¹ s⁻¹] | Ka (A3VP1^AgI/II [4]) [M⁻¹] | Kd (A3VP1^AgI/II [4]) [nM] | koff (A3VP1^AgI/II [4]) [s⁻¹] | kon (A3VP1^AgI/II [4]) [M⁻¹ s⁻¹] | also measured
1 | iSRCR1 (Deglycosylated) (receptor, domain: SRCR1; also called deglycosylated iSRCR1) not shown | 865000 | 1160 | 0.0575 | 49700 | 48100 | 20800 | 0.0246 | 1180 | 7.97e+06 | 125 | 0.00104 | 8300 | 1.92e+06 | 520 | 0.00274 | 5270 | –
2 | iSRCR123 (Deglycosylated) (receptor, domain: SRCR123; also called deglycosylated iSRCR123) not shown | 6.82e+06 | 147 | 0.000464 | 3160 | 458000 | 2180 | 0.00658 | 3010 | 5.24e+06 | 191 | 0.00132 | 6920 | 1.22e+06 | 818 | 0.00333 | 4070 | –
3 | B1 | – | – | – | – | – | – | – | – | – | – | – | – | – | – | – | – | Ka [5]: 1.63e+08 M⁻¹; Kd [5]: 6.15 nM; koff [5]: 0.00197 s⁻¹; kon [5]: 320000 M⁻¹ s⁻¹
4 | iSRCR1 (receptor, not shown: small tags and cut ends, domain: SRCR1; also called SRCRs; iSRCRs) not shown | – | – | – | – | – | – | – | – | – | – | – | – | – | – | – | – | Kd (iSRCR123 [6]): 1.2 nM; Ka [7]: 1.31e+08 M⁻¹; Kd [7]: 7.69 nM; koff [7]: 0.000976 s⁻¹; kon [7]: 127000 M⁻¹ s⁻¹; Ka (C123^AgI/II [8]): 6.46e+06 M⁻¹; Kd (C123^AgI/II [8]): 151 nM; koff (C123^AgI/II [8]): 0.00232 s⁻¹; kon (C123^AgI/II [8]): 15400 M⁻¹ s⁻¹; Ka [9]: 3.91e+06 M⁻¹; Kd [9]: 256 nM; koff [9]: 0.00237 s⁻¹; kon [9]: 9250 M⁻¹ s⁻¹; Ka (A3VP1^AgI/II [10]): 8.57e+06 M⁻¹; Kd (A3VP1^AgI/II [10]): 117 nM; koff (A3VP1^AgI/II [10]): 0.00327 s⁻¹; kon (A3VP1^AgI/II [10]): 28000 M⁻¹ s⁻¹; Kd (iSRCR123 [11]): 5.68 nM
